Measurements as given in patent US20100234287A1, “Targeting Bacterial Suicide Pathways for the Development of Novel Antibiotics” (UNIVERSITY OF MEDICINE AND DENTISTRY OF NEW JERSEY, priority 2006, published 2010).
d = 2'-deoxy (DNA); r = 2'-OH (RNA)

Experiments:
wild type yeast cells = type: cell-based
MazF = MazF (Escherichia coli, UniProt P0A850+P0AE70)
[1] = biological target: T1, RelE, His-tagged at the C-terminal end (E. coli K12, UniProt P0C077 1-95); assay: Ni-NTA purification of the complex via the His-tagged toxin
T1 construct: not shown: C-terminal His tag from pET21
T1 sequence (looked up): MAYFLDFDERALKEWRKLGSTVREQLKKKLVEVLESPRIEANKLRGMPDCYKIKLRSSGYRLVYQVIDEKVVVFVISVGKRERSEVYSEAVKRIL

[2] = test system: cellular mRNAs (ompA, tufA, ompF) and polysomes; assay: Northern blot and polysome pattern after Doc induction (pBAD, arabinose)
YdcE = biological target: T2, YdcE (B. subtilis, UniProt P96622 1-116); assay: purification of the toxin-antitoxin complex
T2 construct: also called MazF homologue from B. subtilis
T2 sequence (looked up): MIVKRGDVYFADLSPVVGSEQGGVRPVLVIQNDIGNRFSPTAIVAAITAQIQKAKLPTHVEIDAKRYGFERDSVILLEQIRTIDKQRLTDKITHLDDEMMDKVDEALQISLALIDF

[3] = biological target: T3, YafQ with His6 tag at the carboxy terminus (E. coli K12, UniProt Q47149 1-92); assay: affinity chromatography, co-purification via His6-tagged YafQ
T3 construct: not shown: C-terminal His6 tag from the pET vector
T3 sequence (looked up): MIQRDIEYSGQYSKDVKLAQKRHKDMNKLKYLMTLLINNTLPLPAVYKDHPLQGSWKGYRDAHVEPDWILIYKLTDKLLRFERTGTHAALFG

[4] = biological target: T4, MazF, His-tagged at the C-terminal end (E. coli K12, UniProt P0AE70 1-111); assay: Ni-NTA purification of the complex via the His-tagged toxin
T4 construct: not shown: C-terminal His tag from pET21
T4 sequence (looked up): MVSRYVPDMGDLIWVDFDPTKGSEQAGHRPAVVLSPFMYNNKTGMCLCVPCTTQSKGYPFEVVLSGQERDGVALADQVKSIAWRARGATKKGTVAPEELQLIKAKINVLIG

E. coli = type: cell-based
[5] = biological target: T5, HipA, His-tagged at the C-terminal end (E. coli K12, UniProt P23874 1-440); assay: Ni-NTA purification of the complex via the His-tagged toxin
T5 construct: not shown: C-terminal His tag from pET21
T5 sequence (looked up): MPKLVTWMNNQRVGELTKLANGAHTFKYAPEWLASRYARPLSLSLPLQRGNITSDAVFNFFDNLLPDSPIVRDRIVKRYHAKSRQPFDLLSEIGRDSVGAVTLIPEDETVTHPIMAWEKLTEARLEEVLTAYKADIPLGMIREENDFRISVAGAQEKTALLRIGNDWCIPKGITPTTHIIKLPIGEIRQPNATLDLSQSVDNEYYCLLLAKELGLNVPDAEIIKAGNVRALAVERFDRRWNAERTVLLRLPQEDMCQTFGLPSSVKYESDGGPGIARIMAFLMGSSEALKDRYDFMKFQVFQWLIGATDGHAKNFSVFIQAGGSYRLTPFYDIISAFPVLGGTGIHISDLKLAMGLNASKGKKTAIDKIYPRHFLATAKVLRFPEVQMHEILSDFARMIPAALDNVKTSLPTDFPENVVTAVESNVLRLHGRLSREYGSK

E. coli cells [6] = type: cell-based; conditions: arabinose-inducible pBAD vector
lpp mRNA = type: cell-based, E. coli
ompA and ompF mRNAs = type: cell-based, E. coli; conditions: 2-h induction of YoeB with arabinose
[7] = test system: translation initiation complex; assay: Toeprinting assay on a translation initiation complex (mazG mRNA fragment, 70S ribosomes); type: biochemical, E. coli; conditions: only in the presence of ribosomes
E. coli cells [8] = conditions: MazF induction (Zhang et al., 2003b); cited from earlier work
[9] = biological target: T6, ChpBK, His-tagged at the C-terminal end (E. coli K12, UniProt P33647 1-116); assay: Ni-NTA purification of the complex via the His-tagged toxin
T6 construct: not shown: C-terminal His tag from pET21
T6 sequence (looked up): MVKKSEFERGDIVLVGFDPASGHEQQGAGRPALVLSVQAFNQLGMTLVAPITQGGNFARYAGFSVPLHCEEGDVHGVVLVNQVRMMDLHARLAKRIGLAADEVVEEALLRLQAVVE

For “RelE: E. coli toxin, ribosome-associating factor that stimulates ribosomal endo-ribonuclease activity”, the “toxicity / growth inhibition in yeast” value (wild type yeast cells) was “prokaryote-specific growth inhibitors”.

For dGdAdTdArUdAdCdAdTdAdTdG [CBS-1], the “function as substrate for MazF” value (MazF; MazF fused to trigger factor, 37° C., pilot experiment) was “suitable and sensitive substrate”.

For “dGdAdTdArUrArCdGdTdAdTdG (GATAUACGTATG; sugars from the 5' end d4 r3 d5, backbone not given here) [CBS-2]”, the “cleavage by MazF” value (MazF; substrate not yet synthesized) was “not by MazF”.

B1: RelB (other, E. coli K12, UniProt P0C079 1-79, looked up)
chain: MGSINLRIDDELKARSYAALEKMGVTPSEALRLMLEYIADNERLPFKQTLLSDEDAELVEIVKERLRNPKPVRVTLDEL
notes: also called RelB antitoxin
B1: binds [1].

B2: Doc: toxin of the Doc-Phd TA operon from phage P1 (protein)
chain: MRHISPEELIALHDANISRYGGLPGMSDPGRAEAIIGRVQARVAYEEITDLFEVSATYLVATARGHIFNDANKRTALNSALLFLRRNGVQVFDSPELADLTVGAATGEISVSSVADTLRRLYGSAE
modifications: left off: small tags and cut ends
With B2 the “degradation of cellular mRNAs” value ([2]; 120 min after induction) was “not degraded” and the polysome pattern ([2]; after 2 h induction, without addition of hygromycin) was “did not change”.

B3: YdcD (other, B. subtilis, UniProt P96621 1-93, looked up)
chain: MSESSARTEMKISLPENLVAELDGVAMREKRSRNELISQAVRAYVSERTTRHNRDLMRRGYMEMAKINLNISSEAHFAECEAETTVERLVSGG
notes: also called YdcD antitoxin
B3: binds (YdcE).

B4: DinJ (other, E. coli K12, UniProt Q47150 1-86, looked up)
chain: MAANAFVRARIDEDLKNQAADVLAGMGLTISDLVRITLTKVAREKALPFDLREPNQLTIQSIKNSEAGIDVHKAKDADDLFDKLGI
notes: Co-expressed with YafQ from a pET vector; the His6 tag was added only to YafQ; also called DinJ antitoxin
B4: binds [3].

B5: MazE (other, E. coli K12, UniProt P0AE72 1-82, looked up)
chain: MIHSSVKRWGNSPAVRIPATLMQALNLNIDDEVKIDLVDGKLIIEPVRKEPVFTLAELVNDITPENLHENIDWGEPKDKEVW
notes: also called MazE antitoxin
B5: binds [4].

B6: YafQ: E. coli toxin of the YafQ-DinJ TA system, sequence-specific MIase (protein)
chain: T3 sequence (looked up)
modifications: left off: small tags and cut ends
For B6, the “toxicity / growth inhibition in E. coli” value (E. coli) was “growth inhibitor” and the “toxicity / growth inhibition in yeast” value (wild type yeast cells) was “growth inhibitor”.

B7: HipB (other, E. coli K12, UniProt P23873 1-88, looked up)
chain: MMSFQKIYSPTQLANAMKLVRQQNGWTQSELAKKIGIKQATISNFENNPDNTTLTTFFKILQSLELSMTLCDAKNASPESTEQQNLEW
notes: also called HipB antitoxin
B7: binds [5].

B8: YoeB: E. coli toxin of the YoeB-YefM TA system, 50S ribosome associating protein (protein)
chain: MKLIWSEESWDDYLYWQETDKRIVKKINELIKDTRRTPFEGKGKPEPLKHNLSGFWSRRITEEHRLVYAVTDDSLLIAACRYHY
modifications: left off: small tags and cut ends
notes: E. coli toxin of the YoeB-YefM TA system, 50S ribosome associating protein
In the case of B8, the “time after induction until cellular protein synthesis is almost completely inhibited” value (E. coli cells [6]) is reported as ≤ 5 min, the “time after induction at which a substantial amount of full-length lpp mRNA is still present” value (lpp mRNA) is reported as “more than 1 h” and the “toxicity / growth inhibition in yeast” value (wild type yeast cells) is reported as “not toxic”. For the same molecule, the “position of primer extension block downstream of the initiation codon, ompA mRNA” value (ompA and ompF mRNAs) was 3 bases, the “position of primer extension block downstream of the initiation codon, ompF mRNA” value (ompA and ompF mRNAs) was 6 bases and the “shift of the toeprint band upstream of the normal toeprinting band” value [7] was 11 bases.

B9: MazF: E. coli toxin, sequence-specific (ACA) endoribonuclease, mRNA interferase (protein)
chain: T4 sequence (looked up)
modifications: left off: small tags and cut ends
In the case of B9, the “time after induction until full-length lpp mRNA disappears” value (lpp mRNA) is given as ≤ 5 min and the “time after induction until cellular protein synthesis is inhibited” value (E. coli cells [8]) is given as 15 to 20 min.

B10: ChpBI (other, E. coli K12, UniProt P08365 1-83, looked up)
chain: MRITIKRWGNSAGMVIPNIVMKELNLQPGQSVEAQVSNNQLILTPISRRYSLDELLAQCDMNAAELSEQDVWGKSTPAGDEIW
notes: also called ChpBI antitoxin
B10: binds [9].
